B1: Mitochondrial intermembrane space import and assembly protein 40 (Saccharomyces cerevisiae), P36046 (parent)
chain: MLRNLVVRNACRNRPSIQVARGLCRHQTRRLMASSPQFGRNSNQEKTAGFIMGILSMAGALYFIAPNRKPLFASRKVESDKTAEEELSSGGEQSPENEDDNNSKSDENGDDNDSKNDETEAGPQLGGDKIGASKVAEDGELVVLAEEDNKSSEDKDTDESKVSTKDDEQSNEDNATANNQKDENISSENSEENTSDKTLDNNAGSSEKKDPEHSDDEKSQQGQSDDKTTTEDNNGEEESSKKTVSDSENSAKQSESSDEEKEELRKQEEKQMGPTEEEVQHEGAYNPDTGEINWDCPCLGGMAHGPCGEEFKSAFSCFVYSEAEPKGIDCVEKFQHMQDCFRKYPEHYAEQLKETSDDEEPQDKVKVNTIESAPNVSSAKENAAKKAEQSDVKKEPLNEESKP
partner: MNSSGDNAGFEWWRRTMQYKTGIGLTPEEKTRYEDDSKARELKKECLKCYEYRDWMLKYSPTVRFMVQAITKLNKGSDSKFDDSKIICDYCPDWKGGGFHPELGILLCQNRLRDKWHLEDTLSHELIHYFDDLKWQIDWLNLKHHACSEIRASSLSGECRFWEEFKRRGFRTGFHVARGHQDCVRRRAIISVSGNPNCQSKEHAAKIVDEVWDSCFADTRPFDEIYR

The variants in this experiment derive from B1. The conditions noted are these: with atp23_yeast ATP23, P53722.
As to MLRNLVVRNACRNRPSIQVARGLCRHQTRRLMASSPQFGRNSNQEKTAGFIMGILSMAGALYFIAPNRKPLFASRKVESDKTAEEELSSGGEQSPENEDDNNSKSDENGDDNDSKNDETEAGPQLGGDKIGASKVAEDGELVVLAEEDNKSSEDKDTDESKVSTKDDEQSNEDNATANNQKDENISSENSEENTSDKTLDNNAGSSEKKDPEHSDDEKSQQGQSDDKTTTEDNNGEEESSKKTVSDSENSAKQSESSDEEKEELRKQEEKQMGPTEEEVQHEGAYNPDTGEINWDCPCLGGMAHGPCGEEFKSAESCFVYSEAEPKGIDCVEKFQHMQDCFRKYPEHYAEQLKETSDDEEPQDKVKVNTIESAPNVSSAKENAAKKAEQSDVKKEPLNEESKP [F315E], the “effect of a mutation on the interaction” value was “decreasing interaction”.

On to MLRNLVVRNACRNRPSIQVARGLCRHQTRRLMASSPQFGRNSNQEKTAGFIMGILSMAGALYFIAPNRKPLFASRKVESDKTAEEELSSGGEQSPENEDDNNSKSDENGDDNDSKNDETEAGPQLGGDKIGASKVAEDGELVVLAEEDNKSSEDKDTDESKVSTKDDEQSNEDNATANNQKDENISSENSEENTSDKTLDNNAGSSEKKDPEHSDDEKSQQGQSDDKTTTEDNNGEEESSKKTVSDSENSAKQSESSDEEKEELRKQEEKQMGPTEEEVQHEGAYNPDTGEINWDCPCLGGMAHGPCGEEFKSAFSCEVYSEAEPKGIDCVEKFQHMQDCFRKYPEHYAEQLKETSDDEEPQDKVKVNTIESAPNVSSAKENAAKKAEQSDVKKEPLNEESKP [F318E], for which the “effect of a mutation on the interaction” value is given as “decreasing interaction”.

These data come from IntAct's records for PubMed 22990235.
